In patent US8680241B2 (priority 2009, dated 2014):

Molecular target: peptide-6 (SEQ ID NO. 15) (Mycobacterium tuberculosis, UniProt P9WPE7)

B1: VH2/VK3: humanized anti-peptide-6 IgG1; heavy chain variable region SEQ ID NO: 21, light chain variable region SEQ ID NO: 26 (antibody, V domains shown)
VH: QVTLKESGPALVKPTQTLTLTCSFSGFSLSTSNMGVGWIRQPAGKGLEWLLHILWNDSKYYNPALKSRLTISKDTYKNQVVLTMTNMDPVDTATYYCARMGGYYGNYGYYAMDYWGQGTLVTVSS
VL: QIVLTQSPATLSLSPGERATLSCTASSSVSSSYLHWYQQKPGKAPKLWIYSTSNLASGVPSRFSGSGSGTDYTLTISSLQPEDFATYYCHQYHRSPPTFGQGTKLEIK
modifications: IgG1 constant regions; VH2 amino acid sequence; VK3 amino acid sequence
binding to peptide-6 directly compared to VH2/VK2 on the same plate: marginally the best binding
